The record followed here is US20050239203, “Regulation of endogenous gene expression in cells using zinc finger proteins” (published 2005).

One data set relates to Zif268 (Mus musculus). The data set is described as follows: EMSA. Conditions: MBP fusion, same conditions; target sequence not given. A general note: A gel shift assay detects complexes by their altered migration in electrophoresis.
For data set [1], the system named is SP-1 zinc finger domain (Homo sapiens). Description: EMSA. Conditions: MBP fusion, same conditions; target sequence not given.
The target of data set [2] is T1, VEGF3a/1 six-finger ZFP (synthetic).
T1 chain: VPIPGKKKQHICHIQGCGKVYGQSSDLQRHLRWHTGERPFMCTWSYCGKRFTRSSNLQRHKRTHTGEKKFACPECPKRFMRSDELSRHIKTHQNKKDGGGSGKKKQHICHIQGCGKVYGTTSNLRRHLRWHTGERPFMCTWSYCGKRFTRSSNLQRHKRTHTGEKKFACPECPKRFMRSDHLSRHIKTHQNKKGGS
The data set is described as follows: EMSA; apparent Kd, room temperature, 25 uM ZnCl2, poly dI-dC. To be noted: tags: N-terminal MBP fusion; label: 5'-32P. The procedure:
(§1) For the EMSA studies, 20 μl binding reactions contained 10 fmole (0.5 nM) 5′-³²P-labeled double-stranded target DNA, 35 mM Tris HCl (pH 7.8), 100 mM KCl, 1 mM MgCl₂, 5 mM dithiothreitol, 10% glycerol, 20 μg/ml poly dI-dC, 200 μg/ml bovine serum albumin, and 25 μM ZnCl₂. Protein was added as one fifth volume from a 3-fold dilution series. Binding was allowed to proceed for 60 min at either room temperature or 37° C. Polyacrylamide gel electrophoresis was carried out at room temperature or 37° C. using precast 10% or 10-20% Tris-HCl gels (BioRad) and standard Tris-Glycine runmning buffer. […] Thus, the 18-bp binding ZFP bound with high affinity to its target site. In a parallel experiment, VEGF1 protein was tested against its target using the oligonucleotides described in Example I, yielding an apparent Kd of approximately 2.5 nM.

The target in data set [3] is T1, VEGF3a/1 six-finger ZFP. The data set is described as follows: EMSA; apparent Kd, 37 C; complex half-life more than 10x longer than VEGF1. Conditions: tags: N-terminal MBP fusion; label: 5'-32P. How it is done: as §1
The apparent Kd is a useful measure of the affinity of a protein for its DNA target. However, for a DNA binding site either in vitro or in vivo, its occupancy is determined to a large extent by the off-rate of the DNA-binding protein. The conditions for EMSA were as described above; binding and electrophoresis were performed at 37° C. […] Thus, under these in vitro conditions, the occupancy of the target site is much higher for the 18-bp binding protein than for the 9-bp binding protein.

For the next data set, the target named is T2, VEGF1-KRAB (synthetic, UniProt P08047 SEQ:1-99).
T2 chain: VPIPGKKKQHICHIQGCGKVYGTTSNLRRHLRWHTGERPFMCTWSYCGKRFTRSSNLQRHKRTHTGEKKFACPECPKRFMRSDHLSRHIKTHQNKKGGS
The data set is described as follows: cell_activity; endogenous VEGF ELISA, DFX-treated 293 cells. Conditions: tags: SV40 NLS, KRAB (KOX1), FLAG. The procedure: Eighteen hours post transfection, the 293 cells were induced by treatment with 100 μM DFX (desferrioxamine), resulting in a rapid and lasting transcriptional activation of the VEGF gene and also in a gradual increase in VEGF mRNA stability (Ikeda et al., J. Biol. Chem. 270:19761-19766 (1995)). Under routine culture conditions, 293 cells secrete a low level of VEGF in the culture media. The cells were allowed to incubate an additional 24 hours before the supernatants were collected for determination of VEGF levels by an ELISA assay.
(In general: An ELISA detects its analyte on a solid surface through an enzyme-linked reagent.)

In the data set with Zif268 (Mus musculus), Zif268 target (sequence not stated) displayed a Kd of 60 nM.
In turn, SP-1 target (sequence not stated) displayed a Kd in data set [1] of 65 nM.

B1: JVF9/JVF10 VEGF 18-bp target (dsDNA)
DNA 1: AGCGAGCGGGGAGGATCGCGGAGGCTTGGGGCAGCCGGGTAG
DNA 2: CGCTCTACCCGGCTGCCCCAAGCCTCCGCGATCCTCCCCGCT
As to B1, the Kd with VEGF3a/1 six-finger ZFP [2] was roughly 1.5 nM; with VEGF3a/1 six-finger ZFP [3] it was roughly 9 nM.

B2: endogenous VEGF promoter target region (dsDNA)
DNA 1: AGCGGGGAGGATCGCGGAGGCTTGG
DNA 2: CCAAGCCTCCGCGATCCTCCCCGCT
As to B2, the activity in the data set with VEGF1-KRAB amounted to 2 fold repression.
